Patent US20240150490A1 (MABPRO A S, published 2024)

B1: CA9hu-1_HC2LC3 (antibody, V domains shown)
VH: EVRLVESGGGLVQPGGSLRLSCAASGFTFTDYYMHWVRQAPGKGLEWLGFIRNKASGYTPQYSASVKGRFTISRDDSTNSLYLQMNSLKTEDTAIYYCVRGGHAGSNYWYFDVWGQGTLVTVSS
VL: DIQMTQSPSSLSASVGDRVTITCHVSQNINVWLSWYQQKPGEAPKLLIYQASNLHTGVPSRFSGSGSGTDFTLTISSLQPEDFATYYCQQGQSYPFTFGQGTKLEIK
notes: Humanized from murine VII/20; also called HC2LC3 (CA9hu-1)
B2: CA9hu-1_HC2LC4 (antibody, V domains shown)
VH: EVRLVESGGGLVQPGGSLRLSCAASGFTFTDYYMHWVRQAPGKGLEWLGFIRNKASGYTPQYSASVKGRFTISRDDSTNSLYLQMNSLKTEDTAIYYCVRGGHAGSNYWYFDVWGQGTLVTVSS
VL: DIQMTQSPSSLSASVGDRVTINCHVSQNINVWLSWYQQKPGEAPKLLIYQASNLHTGVPSRFSGSGSGTGFTLTIRSLQPEDYATYYCQQGQSYPFTFGQGTKLEIK
notes: Humanized from murine VII/20; also called HC2LC4 (CA9hu-1)
B3: CA9hu-1_HC2LC5 (antibody, V domains shown)
VH: EVRLVESGGGLVQPGGSLRLSCAASGFTFTDYYMHWVRQAPGKGLEWLGFIRNKASGYTPQYSASVKGRFTISRDDSTNSLYLQMNSLKTEDTAIYYCVRGGHAGSNYWYFDVWGQGTLVTVSS
VL: DIQMTQSPSSLSASVGDRVTITCHVSQNINVWLSWYQQKPGKAPKLLIYQASNLHTGVPSRFSGSGSGTDFTFTISSLQPEDIATYYCQQGQSYPFTFGQGTKLEIK
notes: Humanized from murine VII/20; also called HC2LC5 (CA9hu-1)
B4: CA9hu-1_HC3LC3 (antibody, V domains shown)
VH: QVQLVQSGGGLVQPGRSLRLSCTASGFTFTDYYMHWVRQAPGKGLEWVGFIRNKASGYTPQYSASVKGRFTISRDDSKTIAYLQMNSLKTEDTAVYYCVRGGHAGSNYWYFDVWGQGTLVTVSS
VL: DIQMTQSPSSLSASVGDRVTITCHVSQNINVWLSWYQQKPGEAPKLLIYQASNLHTGVPSRFSGSGSGTDFTLTISSLQPEDFATYYCQQGQSYPFTFGQGTKLEIK
notes: Humanized from murine VII/20; also called HC3LC3 (CA9hu-1)
B5: CA9hu-1_HC3LC4 (antibody, V domains shown)
VH: QVQLVQSGGGLVQPGRSLRLSCTASGFTFTDYYMHWVRQAPGKGLEWVGFIRNKASGYTPQYSASVKGRFTISRDDSKTIAYLQMNSLKTEDTAVYYCVRGGHAGSNYWYFDVWGQGTLVTVSS
VL: DIQMTQSPSSLSASVGDRVTINCHVSQNINVWLSWYQQKPGEAPKLLIYQASNLHTGVPSRFSGSGSGTGFTLTIRSLQPEDYATYYCQQGQSYPFTFGQGTKLEIK
notes: Humanized from murine VII/20; also called HC3LC4 (CA9hu-1)
B6: CA9hu-1_HC3LC5 (antibody, V domains shown)
VH: QVQLVQSGGGLVQPGRSLRLSCTASGFTFTDYYMHWVRQAPGKGLEWVGFIRNKASGYTPQYSASVKGRFTISRDDSKTIAYLQMNSLKTEDTAVYYCVRGGHAGSNYWYFDVWGQGTLVTVSS
VL: DIQMTQSPSSLSASVGDRVTITCHVSQNINVWLSWYQQKPGKAPKLLIYQASNLHTGVPSRFSGSGSGTDFTFTISSLQPEDIATYYCQQGQSYPFTFGQGTKLEIK
notes: Humanized from murine VII/20; also called HC3LC5 (CA9hu-1)
B7: CA9hu-1_HC4LC3 (antibody, V domains shown)
VH: EVQLVESGGGLVQPGGSLRLSCAASGFTFTDYYMHWVRQAPGRGLEWVAFIRNKASGYTPQYSASVKGRFTISRDNAENSLYLQMNSLRAEDTAVYYCVRGGHAGSNYWYFDVWGKGTTVTVSS
VL: DIQMTQSPSSLSASVGDRVTITCHVSQNINVWLSWYQQKPGEAPKLLIYQASNLHTGVPSRFSGSGSGTDFTLTISSLQPEDFATYYCQQGQSYPFTFGQGTKLEIK
notes: Humanized from murine VII/20; also called HC4LC3 (CA9hu-1)
B8: CA9hu-1_HC4LC5 (antibody, V domains shown)
VH: EVQLVESGGGLVQPGGSLRLSCAASGFTFTDYYMHWVRQAPGRGLEWVAFIRNKASGYTPQYSASVKGRFTISRDNAENSLYLQMNSLRAEDTAVYYCVRGGHAGSNYWYFDVWGKGTTVTVSS
VL: DIQMTQSPSSLSASVGDRVTITCHVSQNINVWLSWYQQKPGKAPKLLIYQASNLHTGVPSRFSGSGSGTDFTFTISSLQPEDIATYYCQQGQSYPFTFGQGTKLEIK
notes: Humanized from murine VII/20; also called HC4LC5 (CA9hu-1)

These binders were tested against recombinant human CA IX (human, UniProt Q16790 38-414) (assay: SPR (Biacore 2000), antibody captured on CM5 chip, rh CA IX in flow, 25 C).
Procedure: In order to determinate the antigen-binding affinity of humanized variants, measurements of affinity constant (KD) for antibodies binding to CA IX were performed by SPR using a Biacore 2000 (T200 in case of CA9hu-2) instrument (GE Healthcare, Piscataway, NJ USA). Each humanized antibody variant was captured on the CM5 sensor chip and recombinant human CA IX (rh CA IX; 42 kDa; R&D Systems, Inc., Minneapolis MN, USA) protein as an antigen was added to the buffer flowing over the chip. The setting details of quantitative interaction analysis between humanized antibodies and rh CA IX were as follows: flow rate 30 μl/min; analysis temperature 25° C.; analysis buffer (10mM HEPES pH 7.4, 150 mM NaCl, […], 0.05% Tween 20). Results from SPR analysis are expressed as the equilibrium dissociation constant (KD) (Table 7).
A Kd of 51 nM was found for B1 in this work.
A Kd of 60 nM was found for B2 in this work.
A Kd of 56 nM was found for B3 in this work.
A Kd of 82 nM was found for B4 in this work.
A Kd of 97 nM was found for B5 in this work.
A Kd of 83 nM was found for B6 in this work.
A Kd of 10.7 nM was found for B7 in this work.
A Kd of 12.3 nM was found for B8 in this work.
